Reference: US20120110693, “TARGETING NUCLEIC ACIDS IN MITOCHONDRIA” (published 2012)

Tests used:
[1] = target: T1, pSu9-DHFR (mouse DHFR fused to Neurospora crassa Su9 presequence) (Mus musculus, UniProt P00375 SEQ:1-259); experiment: EMSA; shift increases with protein; legend names pSu9-DHFR, text says DHFR; 10 mM Tris pH 7.5, 50 mM NaCl, 1 mM MgCl2, 25 C; conditions: label: 32P-UTP; tRNA
T1 chain: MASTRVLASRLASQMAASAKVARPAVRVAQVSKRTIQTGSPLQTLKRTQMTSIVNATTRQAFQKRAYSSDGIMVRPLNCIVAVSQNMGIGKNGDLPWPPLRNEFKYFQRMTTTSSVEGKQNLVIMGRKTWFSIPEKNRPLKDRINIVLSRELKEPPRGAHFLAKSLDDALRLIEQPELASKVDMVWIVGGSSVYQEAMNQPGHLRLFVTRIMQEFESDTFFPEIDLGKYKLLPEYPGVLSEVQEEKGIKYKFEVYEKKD
Experimental: The RNA-protein interaction was studied by means of the shift gel technique. The procedure used is the procedure No. TB110 of Promega, entitled <<gel shift assay system >>. The reaction is conducted in a 9 μL reaction volume comprising: […] of protein, 2 μL of gel shift buffer 5× (20% (v/v) glycerol, 5 mM MgCl₂, 2.5 mM EDTA, 2.5 mM DTT, 250 mM NACl, 50 mM Tris-HCL pH 7.5). The medium is incubated for 10 minutes at room temperature. One μL of radiolabelled tRNA (about 10 fmol corresponding to 20,000 cpm) is then added and the whole is then incubated under mild stirring at 25° C. After migration, the medium is added with one μL of load buffer (250 mM Tris-HCl pH 7.5, 40% (v/v) glycerol). The gel is prepared from a solution of 4% acrylamide/N,N′-methylene bisacrylamide (19/1) in TBE 0.5× buffer (45 mM Tris 45, 1.25 mM EDTA pH 8.3, 45 mM boric acid). The polymerization of the gel is catalyzed by adding 0.04% (w/v) APS and 0.04% (v/v) TEMED. Before charging the samples, the gel is set to a voltage of 350 V for 10 mins. Migration is then carried out for 20 mins at 350 V in the TBE 0.5× buffer. The gel is dried and then exposed against a Phosphorimager plate (Fuji) or subject to autoradiography.
The nucleic acid substrate selected in this case corresponds to the cytosolic tRNAAla of Arabidopsis thaliana (SEQ ID NO: 4). […]

[2] = target: pSu9-GFP (UniProt P42212 SEQ:1-307); experiment: stated unable to interact with tRNAAla; no effect on import; conditions: label: 32P-UTP; tRNA
[3] = target: DHFR (mouse, recombinant) (Mus musculus, UniProt P00375 SEQ:4-190); experiment: Southwestern blot; 10 mM Tris pH 7.5, 5 mM Mg acetate, 2 mM DTT, 4 C; conditions: tags: His tag; label: 5'-32P
Experimental: The DNA substrate selected in this case corresponds to an oligonucleotide (single strand DNA) corresponding to the sequence of cytosolic tRNAAla of A. thaliana (SEQ ID NO: 4). This chemically synthesized oligonucleotide (Sigma Aldrich) and labeled at 5′ was incubated with a membrane onto which the recombinant proteins DHFR and GFP were transferred. No interaction between GFP and the oligonucleotide was observed while a signal was obtained, reflecting an interaction between DHFR and the oligonucleotide.

B1: cytosolic tRNAAla transcript (A. thaliana) (ssRNA)
RNA: GGGGAUGUAGCUCAUAUGGUAGAGCGCUCGCUUUGCAUGCGAGAGGCACAGGGUUCGAUUCCCUGCAUCUCCACCA
[1]
  binding result: binds
[2]
  binding result: no binding

B2: tRNAAla-sequence DNA oligonucleotide (ssDNA)
DNA: GGGGATGTAGCTCATATGGTAGAGCGCTCGCTTTGCATGCGAGAGGCACAGGGTTCGATTCCCTGCATCTCCACCA
[3]
  binding result: binds
